Assays:
[1] = target: Full-length ROCK2 protein (human ROCK2 1–1388) (human) (UniProt O75116); assay: SPR; Biacore X, CM5; full-length ROCK2 amine-coupled (1700 RU); analyte 7 µM with 100 µM MgATP (15-fold molar excess); HBS-EP pH 7.4, 10 µL/min
[2] = target: BACE1 cytoplasmic domain peptide (residues 479–501), N-terminally labelled with 5-FAM; assay: fluorescence polarisation; direct titration: 50 nM fluorescein-labelled BACE1 peptide, dilution series of ROCK2; 20 mM Tris pH 8.0, 100 mM NaCl, 0.05% Brij35P, 2 mM DTT; 384-well plates

Sequence of Full-length ROCK2 protein (human ROCK2 1–1388) (human) (O75116 whole entry, the tested form may be a part): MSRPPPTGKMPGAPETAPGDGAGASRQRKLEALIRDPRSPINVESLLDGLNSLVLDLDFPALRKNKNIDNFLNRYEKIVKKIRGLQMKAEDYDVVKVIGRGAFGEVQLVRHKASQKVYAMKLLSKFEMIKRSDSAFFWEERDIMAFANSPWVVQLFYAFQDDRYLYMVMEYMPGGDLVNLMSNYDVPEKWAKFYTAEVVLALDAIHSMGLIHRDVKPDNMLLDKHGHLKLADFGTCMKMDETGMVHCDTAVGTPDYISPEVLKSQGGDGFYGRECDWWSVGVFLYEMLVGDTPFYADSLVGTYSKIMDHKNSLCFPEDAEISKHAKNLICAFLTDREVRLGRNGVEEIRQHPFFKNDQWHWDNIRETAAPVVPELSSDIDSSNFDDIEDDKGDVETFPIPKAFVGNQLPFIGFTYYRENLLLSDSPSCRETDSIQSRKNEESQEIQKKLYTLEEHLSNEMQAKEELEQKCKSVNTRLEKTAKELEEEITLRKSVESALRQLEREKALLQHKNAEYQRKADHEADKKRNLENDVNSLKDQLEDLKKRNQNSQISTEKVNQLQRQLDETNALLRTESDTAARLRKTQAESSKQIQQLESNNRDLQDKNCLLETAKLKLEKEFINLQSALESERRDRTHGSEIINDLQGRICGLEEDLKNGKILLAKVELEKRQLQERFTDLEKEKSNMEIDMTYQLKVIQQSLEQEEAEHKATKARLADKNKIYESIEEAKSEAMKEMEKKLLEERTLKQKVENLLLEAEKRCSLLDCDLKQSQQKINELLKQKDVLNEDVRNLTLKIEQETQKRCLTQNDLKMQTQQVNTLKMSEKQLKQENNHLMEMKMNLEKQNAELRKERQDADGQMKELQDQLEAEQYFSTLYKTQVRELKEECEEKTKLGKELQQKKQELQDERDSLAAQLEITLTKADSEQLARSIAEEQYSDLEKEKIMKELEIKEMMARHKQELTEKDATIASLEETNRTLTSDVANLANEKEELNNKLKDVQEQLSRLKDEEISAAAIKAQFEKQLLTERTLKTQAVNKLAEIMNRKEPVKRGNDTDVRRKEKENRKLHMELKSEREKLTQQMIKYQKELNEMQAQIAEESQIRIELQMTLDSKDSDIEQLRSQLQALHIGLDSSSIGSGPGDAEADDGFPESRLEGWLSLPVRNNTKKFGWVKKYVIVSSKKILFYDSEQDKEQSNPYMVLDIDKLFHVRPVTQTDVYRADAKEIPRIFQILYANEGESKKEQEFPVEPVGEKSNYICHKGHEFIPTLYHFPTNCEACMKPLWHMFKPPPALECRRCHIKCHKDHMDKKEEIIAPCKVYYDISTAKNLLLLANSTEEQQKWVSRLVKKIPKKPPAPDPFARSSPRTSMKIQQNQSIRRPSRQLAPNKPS
Sequence of Full-length ROCK2 protein (human ROCK2 1–1388) (O75116 whole entry): as the sequence (O75116 whole entry, the tested form may be a part) above
Sequence of ROCK2 kinase domain (27–417) construct (O75116 27-417): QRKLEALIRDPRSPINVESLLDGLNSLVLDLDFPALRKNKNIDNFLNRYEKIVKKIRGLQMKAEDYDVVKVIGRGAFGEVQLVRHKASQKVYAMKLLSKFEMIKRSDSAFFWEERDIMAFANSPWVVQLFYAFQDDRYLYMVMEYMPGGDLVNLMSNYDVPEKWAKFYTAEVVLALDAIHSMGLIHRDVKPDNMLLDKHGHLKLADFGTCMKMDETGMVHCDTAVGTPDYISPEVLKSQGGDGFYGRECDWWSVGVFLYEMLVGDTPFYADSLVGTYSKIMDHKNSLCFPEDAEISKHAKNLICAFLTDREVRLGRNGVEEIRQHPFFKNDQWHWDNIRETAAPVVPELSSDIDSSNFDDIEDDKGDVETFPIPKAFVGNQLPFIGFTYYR

## BACE1 cytoplasmic domain peptide (residues 479–501), free form
[1]
  percent of the theoretical signal: 50%
  response units: 11 RU

## Full-length ROCK2 protein (human ROCK2 1–1388) (from UniProt O75116 1-1388) (enzyme)
[2]
  Kd: 18 µM

## ROCK2 kinase domain (27–417) construct (from UniProt O75116 27-417) (domain or fragment)
[2]
  Kd: 18 µM

Reference: article PMC10341550, “Beta-Secretase 1 Recruits Amyloid-Beta Precursor Protein to ROCK2 Kinase, Resulting in Erroneous Phosphorylation and Beta-Amyloid Plaque Formation” (International Journal of Molecular Sciences, 2023)
